Patent publication US20210277441A1, “METHOD OF SELECTING A POLYPEPTIDE OF INTEREST” (IMPERIAL COLLEGE INNOVATIONS LIMITED, priority 2018, published 2021)

How the values were obtained:
[1] = system: O=C(O)c1ccccc1[N+](=O)[O-]; assay: purified protein, by the assay type; settings: other: cofactor NADH; enzyme 1 uM
O=[N+]([O-])c1ccc(CO)cc1 = assay: purified protein, by the assay type; settings: other: cofactor NADH; enzyme 1 uM

Substance | Km [1] | Km (O=[N+]([O-])c1ccc(CO)cc1) | kcat (O=[N+]([O-])c1ccc(CO)cc1)
Enterobacter cloacae nitroreductase (EntNFSB) variant EntNFSB-s1, S40A/T41I/F124A, SEQ ID NO: 38 (Enterobacter cloacae; F124A/S40A/T41I) | 4.05 mM |  | 
Enterobacter cloacae nitroreductase (EntNFSB), wild type, SEQ ID NO: 37 (Enterobacter cloacae) |  | 9.52 mM mM | 8.76 min-1 min-1
